From PMC4874178 (Biochemistry, 2015)
Like-named read-outs stand apart in the source and are kept apart here.

What was measured:
SEC [1] = target: the molecule itself; test: SEC
SEC [2] = target: the molecule itself; test: SEC; remark: listed apart in the source

Row | Protein | stoichiometry N (SEC [1]) | stoichiometry N (SEC [2])
1 | Staphylococcus aureus strain Newman CstB, wild-type, full-length (enzyme, UniProt G5ELA4 1-444, looked up) MFFKQFYDNHLSQASYLVGCQRTGEAIIIDPVRDLSKYIEVADSEGLTITQATETHIHADFASGIRDVAKRLNANIYVSGEGEDALGYKNMPSKTQFVKHGDIIQVGNVKLEVLHTPGHTPESISFLLTDLGGGSSVPMGLFSGDFIFVGDIGRPDLLEKSVQIKGSTEISAKQMYESVQNIKNLPDYVQIWPGHGAGSPCGKALGAIPISTIGYEKINNWAFNEIDETKFIESLTSNQPAPPHHFAQMKQVNQFGMNLYQSYDVYPSLDNKRVAFDLRSKEAFHGGHTKGTINIPYNKNFINQIGWYLDFEKDIDLIGDKSTVEKAKHTLQLIGFDKVAGYRLPKSGISTQSVHSADMTGKEEHVLDVRNDEEWNNGHLDQAVNIPHGKLLNENIPFNKEDKIYVHCQSGVRSSIAVGILESKGFENVVNIREGYQDFPESLK | 4 | 
2 | C201S CstB, full-length (enzyme) MFFKQFYDNHLSQASYLVGCQRTGEAIIIDPVRDLSKYIEVADSEGLTITQATETHIHADFASGIRDVAKRLNANIYVSGEGEDALGYKNMPSKTQFVKHGDIIQVGNVKLEVLHTPGHTPESISFLLTDLGGGSSVPMGLFSGDFIFVGDIGRPDLLEKSVQIKGSTEISAKQMYESVQNIKNLPDYVQIWPGHGAGSPSGKALGAIPISTIGYEKINNWAFNEIDETKFIESLTSNQPAPPHHFAQMKQVNQFGMNLYQSYDVYPSLDNKRVAFDLRSKEAFHGGHTKGTINIPYNKNFINQIGWYLDFEKDIDLIGDKSTVEKAKHTLQLIGFDKVAGYRLPKSGISTQSVHSADMTGKEEHVLDVRNDEEWNNGHLDQAVNIPHGKLLNENIPFNKEDKIYVHCQSGVRSSIAVGILESKGFENVVNIREGYQDFPESLK |  | 4
3 | CstB^Rhod (isolated C-terminal rhodanese domain of CstB, residues 347-444) (domain or fragment, Staphylococcus aureus strain Newman, UniProt G5ELA4 347-444, looked up) SGISTQSVHSADMTGKEEHVLDVRNDEEWNNGHLDQAVNIPHGKLLNENIPFNKEDKIYVHCQSGVRSSIAVGILESKGFENVVNIREGYQDFPESLK |  | ~3
